*1 amine or outer side, *2 acyl side, *3 side chain or, on linkers, in order; H or OH if unused. [ ]: non-standard residue; d: D form. TyrEtNAc = L-tyrosine O-ethyl acetamide, (S)-3-(4-(2-acetamidoethoxy)phenyl)-2-aminopropanoic acid, CC(=O)NCCOc1ccc(C[C@H](N[*:1])C(=O)[*:2])cc1; Trp(4-Cl)(βS-Me) = C[C@@H](c1c[nH]c2cccc(Cl)c12)[C@H](N)C(=O)O; Pro(trans-4-NH2) = O=C([C@@H]1C[C@@H](N[*:3])CN1[*:1])[*:2]; Trp(βS-Me,4-F) = C[C@@H](c1c[nH]c2cccc(F)c12)[C@H](N)C(=O)O; Bip(4'-COOH) = N[C@@H](Cc1ccc(-c2ccc(C(=O)O)cc2)cc1)C(=O)O; SerOMe = O-methyl-L-serine, COC[C@H](N[*:1])C(=O)[*:2]; Phe(4-COOH) = N[C@@H](Cc1ccc(C(=O)O)cc1)C(=O)O; h3Pal(5-CN) = N#Cc1cncc(CC[C@H](N)C(=O)O)c1; 1Nal = N[C@@H](Cc1cccc2ccccc12)C(=O)O; hTyr = N[C@@H](CCc1ccc(O)cc1)C(=O)O; hPhe = N[C@@H](CCc1ccccc1)C(=O)O; 4Pal = N[C@@H](Cc1ccncc1)C(=O)O; dDab = NCC[C@@H](N)C(=O)O; dNMeA = CN[C@H](C)C(=O)O; Dab = NCC[C@H](N)C(=O)O; Nva = CCC[C@H](N)C(=O)O
Biological target: Recombinant human IL-1β (BioLegend 579404) (human, UniProt P01584 117-269)
Test: cell-based or functional assay

Row | Binder | MRC5 IC50
1 | cyclo([TyrEtNAc]W[Phe(4-COOH)]G[Pro(trans-4-NH2)][Trp(βS-Me,4-F)]D[dNMeA]G[Bip(4'-COOH)][1Nal][Dab][dA][hTyr]) (SMILES CC(=O)NCCOc1ccc(C[C@@H]2NC(=O)[C@H](CCc3ccc(O)cc3)NC(=O)[C@@H](C)NC(=O)[C@H](CCN)NC(=O)[C@H](Cc3cccc4ccccc34)NC(=O)[C@H](Cc3ccc(-c4ccc(C(=O)O)cc4)cc3)NC(=O)CNC(=O)[C@@H](C)N(C)C(=O)[C@H](CC(=O)O)NC(=O)[C@H]([C@@H](C)c3c[nH]c4cccc(F)c34)NC(=O)[C@@H]3C[C@@H](N)CN3C(=O)CNC(=O)[C@H](Cc3ccc(C(=O)O)cc3)NC(=O)[C@H](Cc3c[nH]c4ccccc34)NC2=O)cc1) [SEQ ID NO: 154 (Example No. 154)] | 0.196 nM
2 | cyclo([TyrEtNAc]W[Phe(4-COOH)]G[Pro(trans-4-NH2)][Trp(4-Cl)(βS-Me)]D[dNMeA]G[Bip(4'-COOH)]W[SerOMe][dA][hPhe]) (SMILES COC[C@@H]1NC(=O)[C@H](Cc2c[nH]c3ccccc23)NC(=O)[C@H](Cc2ccc(-c3ccc(C(=O)O)cc3)cc2)NC(=O)CNC(=O)[C@@H](C)N(C)C(=O)[C@H](CC(=O)O)NC(=O)[C@H]([C@@H](C)c2c[nH]c3cccc(Cl)c23)NC(=O)[C@@H]2C[C@@H](N)CN2C(=O)CNC(=O)[C@H](Cc2ccc(C(=O)O)cc2)NC(=O)[C@H](Cc2c[nH]c3ccccc23)NC(=O)[C@H](Cc2ccc(OCCNC(C)=O)cc2)NC(=O)[C@H](CCc2ccccc2)NC(=O)[C@@H](C)NC1=O) [SEQ ID NO: 152 (Example No. 152)] | 0.06 nM
3 | cyclo([TyrEtNAc]W[Phe(4-COOH)]G[Pro(trans-4-NH2)][Trp(βS-Me,4-F)]D[dNMeA]G[Bip(4'-COOH)][1Nal]S[dA][hTyr]) (SMILES CC(=O)NCCOc1ccc(C[C@@H]2NC(=O)[C@H](CCc3ccc(O)cc3)NC(=O)[C@@H](C)NC(=O)[C@H](CO)NC(=O)[C@H](Cc3cccc4ccccc34)NC(=O)[C@H](Cc3ccc(-c4ccc(C(=O)O)cc4)cc3)NC(=O)CNC(=O)[C@@H](C)N(C)C(=O)[C@H](CC(=O)O)NC(=O)[C@H]([C@@H](C)c3c[nH]c4cccc(F)c34)NC(=O)[C@@H]3C[C@@H](N)CN3C(=O)CNC(=O)[C@H](Cc3ccc(C(=O)O)cc3)NC(=O)[C@H](Cc3c[nH]c4ccccc34)NC2=O)cc1) [SEQ ID NO: 155 (Example No. 155)] | 0.22 nM
4 | cyclo([TyrEtNAc]W[Phe(4-COOH)]G[Pro(trans-4-NH2)][Trp(βS-Me,4-F)]D[dNMeA]G[Bip(4'-COOH)][4Pal]L[dA][hTyr]) (SMILES CC(=O)NCCOc1ccc(C[C@@H]2NC(=O)[C@H](CCc3ccc(O)cc3)NC(=O)[C@@H](C)NC(=O)[C@H](CC(C)C)NC(=O)[C@H](Cc3ccncc3)NC(=O)[C@H](Cc3ccc(-c4ccc(C(=O)O)cc4)cc3)NC(=O)CNC(=O)[C@@H](C)N(C)C(=O)[C@H](CC(=O)O)NC(=O)[C@H]([C@@H](C)c3c[nH]c4cccc(F)c34)NC(=O)[C@@H]3C[C@@H](N)CN3C(=O)CNC(=O)[C@H](Cc3ccc(C(=O)O)cc3)NC(=O)[C@H](Cc3c[nH]c4ccccc34)NC2=O)cc1) [SEQ ID NO: 156 (Example No. 156)] | 0.948 nM
5 | cyclo([TyrEtNAc]W[Phe(4-COOH)]G[Pro(trans-4-NH2)][Trp(βS-Me,4-F)]D[dNMeA]G[Bip(4'-COOH)][4Pal][Nva][dA][hTyr]) (SMILES CCC[C@@H]1NC(=O)[C@H](Cc2ccncc2)NC(=O)[C@H](Cc2ccc(-c3ccc(C(=O)O)cc3)cc2)NC(=O)CNC(=O)[C@@H](C)N(C)C(=O)[C@H](CC(=O)O)NC(=O)[C@H]([C@@H](C)c2c[nH]c3cccc(F)c23)NC(=O)[C@@H]2C[C@@H](N)CN2C(=O)CNC(=O)[C@H](Cc2ccc(C(=O)O)cc2)NC(=O)[C@H](Cc2c[nH]c3ccccc23)NC(=O)[C@H](Cc2ccc(OCCNC(C)=O)cc2)NC(=O)[C@H](CCc2ccc(O)cc2)NC(=O)[C@@H](C)NC1=O) [SEQ ID NO: 157 (Example No. 157)] | 0.403 nM
6 | cyclo([TyrEtNAc]W[Phe(4-COOH)]G[Pro(trans-4-NH2)][Trp(4-Cl)(βS-Me)]D[dNMeA]G[Bip(4'-COOH)]W[SerOMe][dA][hTyr]) (SMILES COC[C@@H]1NC(=O)[C@H](Cc2c[nH]c3ccccc23)NC(=O)[C@H](Cc2ccc(-c3ccc(C(=O)O)cc3)cc2)NC(=O)CNC(=O)[C@@H](C)N(C)C(=O)[C@H](CC(=O)O)NC(=O)[C@H]([C@@H](C)c2c[nH]c3cccc(Cl)c23)NC(=O)[C@@H]2C[C@@H](N)CN2C(=O)CNC(=O)[C@H](Cc2ccc(C(=O)O)cc2)NC(=O)[C@H](Cc2c[nH]c3ccccc23)NC(=O)[C@H](Cc2ccc(OCCNC(C)=O)cc2)NC(=O)[C@H](CCc2ccc(O)cc2)NC(=O)[C@@H](C)NC1=O) [SEQ ID NO: 153 (Example No. 153)] | 0.088 nM

Now from value to binder:

Row | MRC5 IC50 | Binder
7 | 0.118 nM | cyclo([TyrEtNAc]W[Phe(4-COOH)]G[Pro(trans-4-NH2)][Trp(βS-Me,4-F)]D[dNMeA]G[Bip(4'-COOH)]KL[dA][hTyr]) (SMILES CC(=O)NCCOc1ccc(C[C@@H]2NC(=O)[C@H](CCc3ccc(O)cc3)NC(=O)[C@@H](C)NC(=O)[C@H](CC(C)C)NC(=O)[C@H](CCCCN)NC(=O)[C@H](Cc3ccc(-c4ccc(C(=O)O)cc4)cc3)NC(=O)CNC(=O)[C@@H](C)N(C)C(=O)[C@H](CC(=O)O)NC(=O)[C@H]([C@@H](C)c3c[nH]c4cccc(F)c34)NC(=O)[C@@H]3C[C@@H](N)CN3C(=O)CNC(=O)[C@H](Cc3ccc(C(=O)O)cc3)NC(=O)[C@H](Cc3c[nH]c4ccccc34)NC2=O)cc1) [SEQ ID NO: 159 (Example No. 159)]
8 | 0.522 nM | cyclo([TyrEtNAc]W[Phe(4-COOH)]G[Pro(trans-4-NH2)][Trp(βS-Me,4-F)]D[dNMeA]G[Bip(4'-COOH)]KL[dDab][hTyr]) (SMILES CC(=O)NCCOc1ccc(C[C@@H]2NC(=O)[C@H](CCc3ccc(O)cc3)NC(=O)[C@@H](CCN)NC(=O)[C@H](CC(C)C)NC(=O)[C@H](CCCCN)NC(=O)[C@H](Cc3ccc(-c4ccc(C(=O)O)cc4)cc3)NC(=O)CNC(=O)[C@@H](C)N(C)C(=O)[C@H](CC(=O)O)NC(=O)[C@H]([C@@H](C)c3c[nH]c4cccc(F)c34)NC(=O)[C@@H]3C[C@@H](N)CN3C(=O)CNC(=O)[C@H](Cc3ccc(C(=O)O)cc3)NC(=O)[C@H](Cc3c[nH]c4ccccc34)NC2=O)cc1) [SEQ ID NO: 160 (Example No. 160)]
9 | 0.0257 nM | cyclo([TyrEtNAc]W[Phe(4-COOH)]G[Pro(trans-4-NH2)][Trp(βS-Me,4-F)]D[dNMeA]G[Bip(4'-COOH)]KL[dA][h3Pal(5-CN)]) (SMILES CC(=O)NCCOc1ccc(C[C@@H]2NC(=O)[C@H](CCc3cncc(C#N)c3)NC(=O)[C@@H](C)NC(=O)[C@H](CC(C)C)NC(=O)[C@H](CCCCN)NC(=O)[C@H](Cc3ccc(-c4ccc(C(=O)O)cc4)cc3)NC(=O)CNC(=O)[C@@H](C)N(C)C(=O)[C@H](CC(=O)O)NC(=O)[C@H]([C@@H](C)c3c[nH]c4cccc(F)c34)NC(=O)[C@@H]3C[C@@H](N)CN3C(=O)CNC(=O)[C@H](Cc3ccc(C(=O)O)cc3)NC(=O)[C@H](Cc3c[nH]c4ccccc34)NC2=O)cc1) [SEQ ID NO: 158 (Example No. 158)]
